Source: patent US20090041783A1 (MOCHIDA PHARMACEUTICAL, published 2009)
Positions count from the first letter of the chain named.

B1: F1249-3-2 (antibody, V domains shown)
VH: EVQLVESGGGLVKPGGSLKLSCAASGFTFSSYGMSWVRQTPDKRLEWVATISSGGSYTYYSDSVKGRFTISRDNAKNNLYLQLSSLKSQDTAIYYCARDSGYFDYWGQGTTLTVSS
VL: NIVLTQSPASLAVSLGQRATISCRASESVDSYGNSFMHWYQQKPGQPPKLLIYLASNLESGVPARFSGSGSRTDFTLTIDPVEADDAATYYCQQNNEDPRTFGGGTKLEIKR
B2: F1245-4-1 (antibody, V domains shown)
VH: QVQLQQPGAELVKPGASVKLSCKASGCTFTSYWMHWVKQRPGQGLEWIGMIHPNSDNTNYNEKFKSKATLTVDKSSSTAYMHLSSLTSEDSAVYYCATHYYDYVDYWGQGTTLTVSS
VL: NIVMTQTPKFLLVSAGDRVTITCKASQSVSNDVAWYQQKPGQSPKLLIYYASNRYTGVPDRFTGSGYGTDFTFTISTVQAEDLAVYFCQQDYSSPWTFGGGTKLEIKR
B3: F1249-22-1 (antibody, V domains shown)
VH: QVQLQQPGAELVKPGASVKLSCKASGYTFTSYWMQWVKERPGQGLEWIGEIDPSDSYTNYNQKFKGKATLTVDTSSSTACMQLSSLTSEDSAVYYCARGAITTATLDYWGQGTTLTVSS
VL: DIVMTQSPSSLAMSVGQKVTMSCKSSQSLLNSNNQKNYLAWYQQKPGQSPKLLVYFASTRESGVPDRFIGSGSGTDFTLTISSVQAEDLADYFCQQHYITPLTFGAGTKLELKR
B4: F1251-1-1 (antibody, V domains shown)
VH: QVNLLQSGAALVKPGASVKLSCKASGYTFTDYYIHWVKQSHGKSLEWIGYINPNSGYTNYNEKFKSKATLTVDKSTNTAYMELSRLTSEDSATYYCTRCNSGYGDWFAYWGQGTLLTVSS
VL: DIQMTQSPPVLSASVGDRVTLSCKASQNINKNLDWYQQKHGEAPKLLIYYTNNLQTDIPSRFSGSGSGTDYTLTISSLQPEDVATFYCYQYNSGPGTFGAGTKLELKR
B5: F1257-3-1 (antibody, V domains shown)
VH: QVTLKESGPGMLQPSKTLSLTCSFSGFSLSTSGMVVSWIRQPSGKSLEWLAAIDWDGDKYYNPSLKSRLTVSKDTSNTQVFLKISSVDIADTATYYCARTPYYGYKEAYYFDYWGQGVKVTVSS
VL: DIQMTQSPASLSASLEEIVTITCKASRAIDDYLSWYQQKPGKSPQLLIYDATSLADGVPSRFSGSRSGTQYSLKISRPQVDDSGIYYCLQSYSTPWTFGGGTKLDLKR
B6: F1249-18-2 (antibody, V domains shown)
VH: QVQLQQPGAELVKPGASVKLSCKASGYTFTSYWMHWLKQRPGQGLEWIGMIHPNSDITNYNEKFKNKATLTVDKSSSTAYMQLSSLTSEDSAVYYCARSGDYYAMDYWGQGTSVTVSS
VL: B2 VL with N1S, W96P
B7: F1249-5-1 (antibody, V domains shown)
VH: B6 VH with D73A, S99L
VL: B2 VL with N1S, A34T, W96P
B8: F1245-7-1 (antibody, V domains shown)
VH: QVQLQQPGAELVKPGASVKLSCKASGYTFTSYWMHWVKQRPGQGLEWIGMIHPNSGSTNYNEKFKSKATLTVDKSSSTAYMQLSSLTSEDSAVYYCASPVTAVVEYYFDYWGQGTTLTVSS
VL: SIVMTQTPKFLLVSAGDRVTITCKASQSVSNDVAWYQQKPGQSPKLLIYYASNRYTGVPDRFTGSGYGTDFTFTISTVQAEDLAVYFCQQDYSSLTFGSGTKLEIKR
B9: F1246-1-1 (antibody, V domains shown)
VH: EVQLVESGGDLVKPGGSLKLSCAASGFTFSSYGMSWVRQTPDKRLEWVATISNGGTYTYYPDSVKGRFTISRDNAKNTLYLQMSSLKSDDTAMYYCGRLRDYYAMDYWGQGTSVTVSS
VL: B1 VL with N1D, L54R, V62I, D80N, A87V, N95S, R100W
B10: F1249-20-1 (antibody, V domains shown)
VH: QVQLQQSGAELVRPGVSVKISCKGSGYTFTDYAMHWVKQSHAKSLEWIGVISTYYGDTSYNQKFKGKATMTVDKSSSTAYMELARLTSEDSAIYYCARAEDYDPWFAYWGQGTLVTVSA
VL: DIVLTQSPASLAVSLGQRATISCRASESVDSYGNSFMYWYQQKPGQPPKLLIYRASNLESGIPARFSGSGSRTDFTLTINPVEADDVATYYCQQSDEDPLTFGAGTKLELKR
B11: F1249-24-1 (antibody, V domains shown)
VH: B10 VH
VL: B10 VL with Y38H
B12: F1249-30-1 (antibody, V domains shown)
VH: B10 VH with T69A, E89D
VL: B10 VL with Y38H
B13: F1245-5-1 (antibody, V domains shown)
VH: QVQLQQPGAELVKPGASVKLSCKASGYTFISYWMHWVKQRPGQGLEWIGMIHPNSGSTHYNEKFKSKATLTVDKSSSTAYMQLSSLTSEDSAVYYCARGGVTPVAYWGQGTLVTVSA
VL: B2 VL with N1S

biological target: T1, human GPVI extracellular region-human Fc fusion protein (hGPVI-hFc) (human); assay: ELISA on immobilised hGPVI-hFc; + A450 0.5-1.0, ++ 1.0-2.0, +++ more than 2.0
T1 construct: Expressed in COS-1, purified on Protein A; also called GPVI-HHH-hFc; hGPVIHHH-hFc
T1 sequence (chain, as listed by the source limits assumed): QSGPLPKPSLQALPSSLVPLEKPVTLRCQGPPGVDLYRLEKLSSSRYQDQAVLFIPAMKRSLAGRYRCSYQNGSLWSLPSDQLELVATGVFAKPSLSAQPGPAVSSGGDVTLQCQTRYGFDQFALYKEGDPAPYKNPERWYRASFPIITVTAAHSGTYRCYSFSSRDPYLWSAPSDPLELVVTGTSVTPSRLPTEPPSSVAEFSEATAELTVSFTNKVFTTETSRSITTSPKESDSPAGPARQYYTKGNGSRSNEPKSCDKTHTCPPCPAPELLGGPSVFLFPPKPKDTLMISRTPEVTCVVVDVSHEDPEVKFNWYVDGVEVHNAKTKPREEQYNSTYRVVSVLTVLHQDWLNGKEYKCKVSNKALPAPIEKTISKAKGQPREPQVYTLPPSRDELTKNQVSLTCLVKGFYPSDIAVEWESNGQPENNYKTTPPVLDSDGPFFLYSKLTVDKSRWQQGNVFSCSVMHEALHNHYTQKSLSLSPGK
Method: The hGPVI-hFc prepared by EXAMPLE 1B was diluted with D-PBS to 2 μg/mL and added to immunoplate (Maxisorp NUNC) at 50 μL/well. After incubation at 37° C. for one hour, the well was washed five times with ion-exchanged water, and D-PBS (pH7.4) containing 2% StabilGuard (Surmodics) was added to each well in 100 μL for blocking. Next, culture supernatant was added to each well and incubated at 37° C. for one hour. After incubation, the well was washed three times with the saline containing 0.05% Tween20. Peroxidase-labeled anti-mouse immunoglobulin antibody (DAKO, P260) was 1000-fold diluted with D-PBS containing 10% rabbit serum and added to each well at 50 μL. After incubation at 37° C. for one hour, washing in a similar manner was performed and TMB solution (BioFix) was added to each well. After ten minutes at room temperature, the reaction was terminated with 0.5 M sulfuric acid solution. Subsequently, absorbance at 450 nm was measured with the plate spectrophotometer (Multiscan JX, Dainippon Pharmaceutical). As a result, the cell whose culture supernatant reacted to hGPVI-hFc was selected and a cloning with limiting dilution method (“The Introduction to Monoclonal Antibody Experimental Procedure” written by Tamie Andoh and Takeshi Chiba (Kodansha, p 83)) was performed. Eight days later, screening was done in a similar manner and the antibody which reacts to hGPVI-hFc was selected.
(§1) To analyze a property for each antibody obtained in EXAMPLE 13, binding to human GPVI-hFc, competition with F1232-37-2 described in EXAMPLE 4 and specificity for L9 loop were investigated. That is, as for the binding to human GPVI, according to the method of EXAMPLE 2, a binding activity to immobilized antigen was measured. For the binding activity, the range of absorbance from 0.5 to 1.0 is represented by “+”, from 1.0 to 2.0 by “++”, the range more than 2.0 by “+++”. The competitive test with F1232-37-2 was performed as follows. That is, according to the method by Nakane et al. (J. Histochem. Cytochem., 22, 1084, 1974), peroxidase (TOYOBO)-labeled F1232-37-2 antibody was prepared and an antibody concentration was calculated from the amount of the antibody used.

Compared with B1, B2 is higher in absorbance: 0.5 to 1 od for the first, > 2 od for the second.

B3 and B4 fall in the same range of absorbance: 0.5 to 1 od for the first, 0.5 to 1 od for the second.

B5 and B6 cannot be ordered by absorbance: > 2 od for the first, > 2 od for the second.

B7 and B8 fall in the same range of absorbance: 1 to 2 od for the first, 1 to 2 od for the second.

First: B9
Second: B10
The absorbance of the first is lower: 1 to 2 od for the first, > 2 od for the second.

B11 and B12 cannot be ordered by absorbance: > 2 od for the first, > 2 od for the second.

B13 was tested, and the absorbance was 1 to 2 od.

biological target: T1, human GPVI extracellular region-human …; assay: ELISA of hybridoma culture supernatant on coated hGPVI-hFc (selection criterion)
Method: Next, culture supernatant was added to each well and incubated at 37° C. for one hour. After incubation, the well was washed three times with the saline containing 0.05% Tween20. Peroxidase-labeled anti-mouse immunoglobulin antibody (DAKO, P260) was 1000-fold diluted with D-PBS containing 10% rabbit serum and added to each well at 50 μL. After incubation at 37° C. for one hour, washing in a similar manner was performed and TMB solution (BioFix) was added to each well. After ten minutes at room temperature, the reaction was terminated with 0.5 M sulfuric acid solution. Subsequently, absorbance at 450 nm was measured with the plate spectrophotometer (Multiscan JX, Dainippon Pharmaceutical). As a result, the cell whose culture supernatant reacted to hGPVI-hFc was selected and a cloning with limiting dilution method (“The Introduction to Monoclonal Antibody Experimental Procedure” written by Tamie Andoh and Takeshi Chiba (Kodansha, p 83)) was performed. Eight days later, screening was done in a similar manner and the antibody which reacts to hGPVI-hFc was selected.
After one week, hybridoma, which produces a desired antibody was screened using the binding property to hGPVI-hFc and hGPVI-mL9-hFc prepared in EXAMPLE 7 as an index. That is, the purified hGPVI-hFc or hGPVI-mL9-hFc, which was prepared in EXAMPLE 1, was diluted with D-PBS (pH7.4) to 1 μg/mL. And 50 μL/well of the solution was added to make hGPVI-hFc or hGPVI-mL9-hFc-coated plate using the same method as that of EXAMPLE 2. Next, a culture supernatant was added to each well, and after incubation at room temperature for one hour, by the same method as that of EXAMPLE 2, using peroxidase-labeled anti-mouse immunoglobulin antibody (DAKO, P260) a reaction was performed to measure an absorbance. As a result, the cell producing an antibody that binds to the purified hGPVI-hFc (absorbance: equal to or more than one), but not hGPVI-mL9-hFc (abdorbance: equal to or less than 0.5) was selected and cloned by the method described in EXAMPLE 2. Eight through ten days later, a screening was done as with the similar way to obtain a hybridoma producing an L9-specific mouse anti-human GPVI antibody. As with EXAMPLE 2B (3), the obtained hybridoma was cultured and a monoclonal antibody was purified. The sub-type of each antibody was determined using IsoStrip Mouse Monoclonal antibody Isotyping Kit (Roche).

B1 and B2 cannot be ordered by absorbance: ≥ 1 absorbance for the first, ≥ 1 absorbance for the second.

B3 and B4 cannot be ordered by absorbance: ≥ 1 absorbance for the first, ≥ 1 absorbance for the second.

B6 and B7 cannot be ordered by absorbance: ≥ 1 absorbance for the first, ≥ 1 absorbance for the second.

B8 and B9 cannot be ordered by absorbance: ≥ 1 absorbance for the first, ≥ 1 absorbance for the second.

B10 and B11 cannot be ordered by absorbance: ≥ 1 absorbance for the first, ≥ 1 absorbance for the second.

B12 and B13 cannot be ordered by absorbance: ≥ 1 absorbance for the first, ≥ 1 absorbance for the second.

biological target: T1, human GPVI extracellular region-human …; assay: competition ELISA on hGPVI-hFc plate; competitor: peroxidase-labelled F1232-37-2; +++ more than 50%, ++ 30-50%, + 10-30% inhibition
Method: as §1
Next, by using the peroxidase-labeled antibody, the competitive test for a variety of purified antibody was performed. That is, 25 μL of the above labeled antibody and 25 μL of each purified antibody were added to well of hGP-hFc-immobilized plate. After incubation at 37° C. for one hour, the well was washed five times with the saline containing 0.05% Tween20, and the reaction mixture was developed with TMB solution (BioFix). After incubation at room temperature for 10 minutes, the reaction was terminated with 0.5 M sulfuric acid solution and an absorbance at 450 nm was measured with the plate spectrophotometer (Multi-Scan JX, Dainippon Pharmaceutical).

B1 and B2 fall in the same range of percent inhibition: 30 to 50% for the first, 30 to 50% for the second.

B3 and B4 fall in the same range of percent inhibition: 10 to 30% for the first, 10 to 30% for the second.

B6 and B7 fall in the same range of percent inhibition: 30 to 50% for the first, 30 to 50% for the second.

B8 and B9 fall in the same range of percent inhibition: 10 to 30% for the first, 10 to 30% for the second.

First: B10
Second: B11
The percent inhibition of the first is lower: 30 to 50% for the first, > 50% for the second.

Compared with B12, B13 is lower in percent inhibition: > 50% for the first, 30 to 50% for the second.

biological target: T1, human GPVI extracellular region-human …; assay: ELISA, collagen on plate, hGPVI-hFc plus antibody; +++ more than 50%, ++ 30-50%, + 10-30% inhibition

B1 and B2 fall in the same range of percent inhibition: 10 to 30% for the first, 10 to 30% for the second.

Compared with B3, B4 is lower in percent inhibition: 30 to 50% for the first, 10 to 30% for the second.

First: B6
Second: B7
The percent inhibition of the first is higher: > 50% for the first, 10 to 30% for the second.

B11 and B13 fall in the same range of percent inhibition: 10 to 30% for the first, 10 to 30% for the second.
